Results: patent US20250255905A1 (University of Texas, published 2025)

Biological target: T1, recombinantly produced human BCMA (human, UniProt Q02223 1-54, limits assumed)
T1 construct: also called B-cell maturation antigen; TNFRSF17
T1 sequence (looked up): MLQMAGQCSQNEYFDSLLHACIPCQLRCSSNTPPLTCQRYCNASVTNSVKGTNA
Test: flow cytometry; CAR-transduced cord blood NK cells stained with recombinantly produced human BCMA to detect the CAR on the surface
Method: Following the incubation, the cells were transferred to a v-bottom 96-well plate for cell staining. The cells, after pelleted by centrifugation and washed with flow buffer, were stained in 1:10 Fc block with fluorescently conjugated mouse anti-human CD3, mouse anti-human CD56, mouse anti-human NKG2D, and recombinantly produced human BCMA for 30 minutes on ice in the dark. The stained cells were washed, resuspended in Sytox Viability Dye and recorded on an MACSquant flow cytometer. Data were exported and analyzed using FlowJo v10.6.2. Live CD3-CD56⁺BCMA⁺ […] excluding the viability dye were quantified.

binding result: binds
B1: BCMA-DAP10 CAR (other)
chain: QITLRESGGDVVQPGRSLRLSCAASGFTFSSYAIHWVRQAPGKGLEWVAVTWHDGSNKYYAESVMGRFTISRDNSKNTLYLHMNSLRAEDTGVYYCARAKFGEPQYFQHWGQGTLVTVSSGGGGSGGGGSGGGGSDIVMTQSPSFLSASVGDRVTITCRASQGINNYLAWYQQKPGIAPKLLIYAASTLQSGVPSRFGGSGSGTEFTLTISSLQPEDFATYYCQQLKSYPFTFGPGTKVEIKRAAAIEVMYPPPYLDNEKSNGTIIHVKGKHLCPSPLFPGPSKPKDPKFWVLVVVGGVLACYSLLVTVAFIIFWVLCARPRRSPAQEDGKVYINMPGRGRVKFSRSADAPAYQQGQNQLYNELNLGRREEYDVLDKRRGRDPEMGGKPRRKNPQEGLYNELQKDKMAEAYSEIGMKGERRRGKGHDGLYQGLSTATKDTYDALHMQALPPR
notes: It leaves out the signal peptide, E2A and IL-15; E2A residues left at the C-terminus after cleavage are not described; also called BCMA CAR; BCMA targeting CAR
